Reference: US20230218637A1, “COMPOSITIONS AND METHODS FOR DIAGNOSING, PREVENTING, AND TREATING AMYOTROPHIC LATERAL SCLEROSIS IN PATIENTS WITH HYPOFUNCTIONAL ANTI-TRYPSIN ACTIVITY” (Motor Life Sciences, LLC, priority 2020, published 2023)

Key:
[1] = system: mutant SOD mice (SOD1G93A); test: Ursolic acid treatment of ALS mouse model (grip test, rotarod); format: in vivo; conditions: ursolic acid 200 mg/kg daily over eight weeks
Experimental: In ALS mouse models, like mutant SOD mice (SOD1G93A)), ALS is diagnosed based on hanging wire grip test (where the latency of falling is measured in seconds), grip strength analysis, rotarod time trial test, where a decrease in time balanced on the rod correlates to disease positive mice. Weight is measured to determine hypotrophy of muscle mass over time. Low levels of serum serpinA1 proteins levels, serum protease inhibitor function, serum trypsin protein levels, and serum functional trypsin level correlates with ALS. Once the mice have been diagnosed with ALS, the mice are given daily treatments of ursolic acid (200 mg/kg) over the course of eight weeks. Levels of serum serpinA1 proteins, serum protease inhibitor function, serum trypsin protein, and serum functional trypsin are assessed over time monitoring for an increases. Grip test and rotarod times are assessed over time as a correlation for delay in disease progression.

[2] = system: alpha-1 anti-trypsin; conditions: cited from earlier work; for augmenting blood and lung alpha-1 anti-trypsin levels compared with Prolastin / safety compared with Prolastin: basis of approval
[3] = molecular target: T1, alpha1-protease inhibitor (Homo sapiens, UniProt P01009); conditions: cited from earlier work
T1 construct: a human protein has been isolated from pooled human serum samples and lyophilized; tissue Baxter / Takeda (Aralast NP); host or cells: pooled human serum / plasma
T1 sequence (P01009 25-418): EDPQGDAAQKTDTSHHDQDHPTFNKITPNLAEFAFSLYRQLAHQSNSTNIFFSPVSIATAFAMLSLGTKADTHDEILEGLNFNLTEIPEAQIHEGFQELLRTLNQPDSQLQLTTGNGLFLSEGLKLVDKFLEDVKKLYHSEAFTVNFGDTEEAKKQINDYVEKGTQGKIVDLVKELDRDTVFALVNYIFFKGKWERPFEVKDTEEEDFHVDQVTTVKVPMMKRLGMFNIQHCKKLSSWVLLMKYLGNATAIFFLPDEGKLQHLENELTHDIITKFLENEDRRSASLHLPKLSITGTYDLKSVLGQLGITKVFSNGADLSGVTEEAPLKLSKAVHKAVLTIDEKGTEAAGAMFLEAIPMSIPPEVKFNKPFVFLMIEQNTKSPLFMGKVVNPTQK

Molecule | performance (grip test, rotarod) versus non-treatment group [1] | augmenting blood and lung alpha-1 anti-trypsin levels compared with Prolastin [2] | safety compared with Prolastin [2] | specific activity [3] | safety record ([2]; marketed since 1988)
C[C@H]1[C@H](C)CC[C@]2(C(=O)O)CC[C@]3(C)C(=CC[C@@H]4[C@@]5(C)CC[C@H](O)C(C)(C)[C@@H]5CC[C@]43C)[C@H]12 [ursolic acid] | outperform the non-treatment group | – | – | – | –
Aralast NP: sterile, lyophilized preparation of human alpha-1 antitrypsin protein derived from large pools of human plasma | – | comparable to Prolastin | comparable to Prolastin | 0.55 mg active alpha1-protease inhibitor/mg of total protein | –
Glassia: FDA approved alpha-1 antitrypsin deficiency drug from Kamada Ltd. | – | comparable to Prolastin | comparable to Prolastin | – | –
Prolastin: alpha-1 antitrypsin augmentation therapy product from Grifols, marketed since 1988 | – | – | – | – | excellent safety record
Zemaira: FDA approved alpha-1 antitrypsin deficiency drug from CSL Behring | – | comparable to Prolastin | comparable to Prolastin | – | –
